Test results: the nanobody polyreactivity screen of Harvey et al. (2022)

Test: yeast display, Sf9 membrane polyspecificity reagent, FACS + sequencing; frameworks hold sequencing errors
Procedure, shortened: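 Nanobodies came from a synthetic yeast display library in Saccharomyces cerevisiae BJ5465, induced with galactose for 36–48 hours and stained for 1 hour at 4 °C with 10% biotinylated, detergent-solubilized Sf9 membrane reagent. Cells were enriched on streptavidin microbeads and then FACS-sorted, with low and high (top ~1%) gates set on anti-HA fluorescence for expression and streptavidin fluorescence for reagent binding. Each polyreactivity label reflects the gate a clone came from. Genes were amplified by colony PCR, sequenced by MiSeq 2 × 250 and filtered by CDR length.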

Row | Sequence | polyreactivity (PSR sort gate)
1 | QAQLQESGGSLVQAGGGMRLSCAASGYISVGSVMGWYRQAPSKERELVASIDQGANTNYADSVKGRFTISRDNAKNNVYLQMNSLKPEDTAVYYCATETTYILNYWGQGTQVTVSS | low polyreactivity
2 | QAQLVESGGGLVQAGGRLRLICAASGSIFAGYAMGWSRQAPGKERELVATITSSSRTNYADSVKGRFSISRDNAKNNVYLQMNILKPEETAVSYCAARGRSVIDVYRMYYWGQGTKVTVSS | high polyreactivity
3 | QAQLVESGGGLVQAGGSLRLSCAASGSTSLDNAMGWYRQAPGKERELVAAIRWRGSITFYADSVKGRFTISRDNAKNTVYLQMNSLKPEDTAVYYCAVTLRYTRSGAYDYWGQGTQVTVSS | low polyreactivity
4 | QAQLVESGGGLVQEGGSLRLSCAASGSIFYGYAMGWSRQAPGKERELVATIRFITGSTYYADSVKGRFTISRDNAKNTVYLQMNSLKPEDTAVYYCAAVYVGYYDNYDYWGQGTQVTVSS | low polyreactivity
5 | QDHHVESGGGLVQAGGSLRLICAASGSTFSWNTMGWYRPAPGKERDLVAAISWSTGRTYYADSVKGRFTISRDNAKNTVYLQMISLKPEDTAVYYCAARRFVTDGTRREYDYWGQGTQVTVSS | high polyreactivity
6 | QDHHVESGGGLVQARGTLRLSCAASGIIYSYYAMGWFRQAPGKEWELVAAITASGGSTYYADSVKGRFTISRDNAKNTVYLQMNSLKPQDTGVSYCAAGSFFLHLIGYSTVSYGRNYWGQGTQVTVAS | high polyreactivity
7 | QDHLVESGGGLVQAGGSLRLSCAASGITFVYYYMGWYRTAPGKERELVAAISSDGSTYYADSVKGRFTISRDNAKNTVYLQMNSLKPEDTAVYYCNAVAIVPYFYVVYDIFDYWGQVTQVTVSS | low polyreactivity
8 | QDHLVESGGGLVQAGGSLRLSCAASGSIFGLNVMGWYRHAPGKERELVASITSGRSTNYADSVKVRFTISRDNAKNTVYLQMNSLKPVVTAVYYCYATRVRGWYVTRYYYWGQGTQVTVSA | high polyreactivity
9 | QDHLVESGGGLVQAGGSLRLSCAASGSIFRRNAMGWYRQAPGKERELVAAIRYSGDRTYYADSVKGRFTISRDNAKNTVYLQMNSLKPEDTAVYYCAAKRSVSYYGYYYWGQGSQVTVSS | high polyreactivity
10 | QDHLVESWGGLIQAGCSLRISCAASGSITVYNAMGWYRQAPWKERELLAAITGGVTTNYADSVKGRFTISRDNAKTTFYLLMNSLKPEDTAVYYCAKSQIPFGLDSPVDYWGQGTQVNVSS | low polyreactivity
11 | QDKLVDSGGGLVQAGGSLLLSCAASGFIFLNNAMGWYRQAPGKQRELVAAITWSGGSTYYADSVKGRFTISRDNAKNTVYLQMNSLKPVDTAVYYCAADGWLYYGVGFYSSRRDYYWGQGTQVTVSS | low polyreactivity
12 | QDPLVESGGGLVQAGGSLRLSCAASGRLFYRNPMGWYRQAPGKERELVAAISSSGGGTYADSVKGRFTISRDNAKNTVYLQMNSLKPEDTAVYYCAAGPFSYSHYGRKFYYWGQGTQVTVSS | high polyreactivity
13 | QDPLVESGGLLVQAGGSLRLSCAASGFTFSRYAMGWYRQAPGKERELVAVIDNSGGTTYYADSVKGRFTISRDNAKNTVYLQMNSLKPEDTAVYYCAAKRIPRYYSASDYWGQGTQVTVSS | low polyreactivity
14 | QDQDVESGGGLVQARGSLPLSCAASGSIFAWYAMGWYRQSPGKERELLAVITSSDGSTHYADSVKGRFTISRDNAKNSVYLQMISLKPEDTAVYYCAAFRSLRESKGYWWEYYSWGQGTQVTVSS | low polyreactivity
15 | QDQHVDSGGGLVQAGGSLRLRCAASGFTIADYAMGWYRQAPGKERELVAAINRSGGRTYYADSVKGRFTISRDYAKNTVYLQMNMLKPEDTAVYYCAAYGITYHNSDSWGQGTQVTVSS | high polyreactivity
16 | QDQHVESGGCLVQEGGSLRLSCAASGRTFSSNVMGWYRQAPGKVRELVASITWSGGTTYYADSVKGRFTISRDNAKNTVYLQMNSLKPEDTAVYYCNAADERSQGWVGYDHWGQCTQVTVSS | low polyreactivity
17 | QDQHVESGGGLVQAGGRLSLICAASAFISVRNAMGWYRQAPGKERELVAAISSGDTTDYADSLKGRFTISRDNAKNTVYLLMNSLKPEDTAVYYCAAVYSGRYYYWGQGTQVTVSS | low polyreactivity
18 | QDQHVESGGGLVQAGGSLRLICAASGINFDYYNMGWYRQAPGKERELVATISSGGTSTFYADSVKGRFTISRDNAKNTVYLQMNSLKPDDSAVYYCAKDRPGWVHRRPSGGFDYWGQGTQVTVSS | low polyreactivity
19 | QDQHVESGGGLVQAGGSLRLICAASGLIFGYYAIGWYRLAPGKERELVAAITSDSSTNYADSVKGRFTISRDNAKNTVYLHMNSLKPVDTAVYYCAADIMTRRGYYYWGHGTQVTVSS | high polyreactivity
20 | QDQHVESGGGLVQAGGSLRLICDASGGIFGTNDMGWYRQAPGKERELVAAITSDSGATYYADSVKGRFTISRDNAKNTVYLQMNSLKPEDTAVYYCAAEDGPWFYRYGYWGQGTQVTVSS | low polyreactivity
21 | QDQHVESGGGLVQAGGSLRLSCAASGFTFDFYAMGWYRQAPGKERELVAAISKNDGTTYYADSVKGRFTISRDNAKNTVYLQMNSLKPEDTGVYYCAAESGYPVYTYVSSGDYWGQGTQVTVSS | low polyreactivity
22 | QDQHVESGGGLVQAGGSLRLSCAASGGNYAGYAMGWYRQAAGKARELVAAISWRGTSTYYADSVKGRFTISRDNAKNTVYLELNSLKPEDTAVYYCAAEAASWWGYGYWGQGTQVTVSS | high polyreactivity

Row | Sequence | polyreactivity (PSR sort gate)
23 | QDQHVESGGGLVQAGGSLRLSCAASGILYNYYAMGWYRQAHGKERELVAAISASGGSTYYADSVKGRFTISRDNAKNTVYLQMYSLKPEDTAVYYCNAAVLYRQYGRGDYLGQGTQVTVSS | low polyreactivity
24 | QDQHVESGGGLVQAGGSLRLSCAASGRISKRNVMGWYRPAPGKERELVACISSTGSTSYADSVKGRFTISRDNAKYTVYLQMNSLNPEDTAVYYCAARGQATYNWGQGTQVTVSS | high polyreactivity
25 | QDQHVESGGGLVQAGGSLRLSCAASGRTFRLYAMGWYRQAPGKERELVAAITRGGRTNYADSVKGRFTISRDNAKNTVYLQMNSLKPEDTAVYYCAARYVERHTDYYYWGQGTQVTVSS | low polyreactivity
26 | QDQHVESGGGLVQAGGSLRLSCAASGRTFSYYTMGWYRQAPGKERELVAAISRRGGNTYYADSVKGRFTISRDNAKNTVYLQMNSLKPADTAVYYCAALSYAKHYDPSGYDYWGQGTQVTVSS | high polyreactivity
27 | QDQHVESGGGLVQAGGSLRLSCAASGSIFWYYAMGWYRQEPGKERELVAAISRSGGSTYYADSVKGRFTISRDNAKNTVYLEMNSLKPEDTAVYYCAAGYSSLRRFGVYYWGQGTQVTVSS | high polyreactivity
28 | QDQHVESGGGLVQAGGSLRLSCAASGSTFHLYAMGWYRQAPGKERELVATITWRTGSTYYADSVKGRFTISRDNAKNTVYLQMNSLKPEDTAVYYCAAYPYRYSWLDYWGQGTQVTVSS | high polyreactivity
29 | QDQHVESGGGLVQAGGSLRLSCAASGSTFRYYAMGWYRQRPGKESEMVAAITRRGGSTYYADSVKGRFTISRDNAKYTVYLQMNSLKQADTAVYYCAAYRIYYSGYGYYYYWGQGTQVTVSS | high polyreactivity
30 | QDQHVESGGGLVQAGGSLRLSCAASGSTFVYYAMGWYRQAPGKERELVAVITWSGGRTYYADSVKGRFTISRDNAKNTVYLQMNSLKPEDTAGYYCAADPLSGYDYWGQGTQVTVSS | low polyreactivity
31 | QDQHVESGGGLVQEGGSLRLSCAASGSTFWPYAMGWSRQAPGKERELVARINSGGNTNYADSVKGLFTISRDNAKNTVYLQMNSLKPEDTAVYYCAVRSLYEPRVYYRCVVGDGNYWGQGTQVTVSS | low polyreactivity
32 | QDQHVESGGGLVQEGGSLRLSCASSSSTFEYYAMGWYRQPPGKERELVATISIDGRTNYADSVKGRFTISRDNAKNTVYLQMNSLKPEDTAVYYCAARPYWRHRYDYWVQGTQVTVSS | low polyreactivity
33 | QDQHVESGGGVVQARGSLRLICDASGFTIQRSAMGWYRQAPGKERELVAAISSGGSTYYADSVKGRFTFSRDNAKNTVYLQMNSLKPEDTAVYYCAARPIPRYYGKFWRVDYWGQGTQVTVSS | high polyreactivity
34 | QDQHVESGRGLVQAGGSLRLSCAASGLIFPRNAMGWYRQAPGKERELVAVISRSGTSTYYADSVKGRFTISRDNAKNTVYLQMNSLKPEDTAVYYCAAYSRRGSSLRGRYGYWGQGTQVTVSS | high polyreactivity
35 | QDQHVESGVGLVQEGGSLPLSCASSAFIIVKYAMGWYRKAPGKERELVAAITSGGSTSYADSVKGRFTISRDNAKNTVYLQMNRLKPEDTAVYYCAASTTAYAYVNYGYWGQGTQVTVSS | low polyreactivity
36 | QDQHVETGGRLVHAGCSLRISCAASGSTFTGYAMGWNRPPPGKERELVAAISSGGSTYYADSVKGRFTISRDNPKNTVYLQMNSLTPEDTAVYDCAAAPRWKASRLYYWGQCTQVTVSS | high polyreactivity
37 | QDQIVESGGGLVQAGGSLRLTCAASGLNIYDNMGWYRQAPGKERELVAAISSSGGSTSYADSVKGRFTISRDNAKNTFYVQMNSLKPEDTAVYYCAADSYPAYLGFVGFDYWGQGTQVTVSS | low polyreactivity
38 | QDQLEESALGLVQAGGSLRLICAASGRTFQYYTMAWYRPAPAKEREFVAAIRDSGGSTYYADSVKGRFTISRDNAKNTVYLQMNSLKPEDTAVYYCNKVPNGPSNYDYWGQGTQVTVSS | high polyreactivity
39 | QDQLEESGGGLRQAGGSLRLTCAASGIIFPYYTKGLYRQATGKEKLVAAISSRGGSTYYADSVKGRFTISRDNAKNTVYLQMTSLKPEDTAVYYCAAKNVYHDDFWGQGTQVTVSS | high polyreactivity
40 | QDQLEESGGGLVQAGGSLRLSCAASGNIFPRNAMGWYRQAAGKERELVAAISASGDNTYYADSVKGRFTISRDNAKNTVYLQMNSLKPEDTAVYYCSAGTFYESIQPYESVAYYYWGQGTQVTVSS | low polyreactivity
41 | QDQLEESGGGLVQAGGSLRLSCAASGSTFLVYAMGWYRQAPGKEREFVAAISWSGGSTFYADSVKGRFTISRDNAKNTVYLQMNSLKPEDTAVYYCAARQAGYSGRKLYYWGQGTQVTVSS | low polyreactivity
42 | QDQLEESGGGLVQAGGSLRLSSAASGGTLYLYDMGWYRQAPGKERELVAAISYNGGSTYADSVKGRFTISRDNAKNTFYLQMNSLNPEDSAVYYCAADRPPRGLGGYWGQGTLVTVSS | low polyreactivity
43 | QDQLEETGGGLVHAGGSLRLSCAASGRTFVVYDMGWYRQAPGKERELVAGIRWRGGSTYYADSVKGRFTISRDNAKNSVYLQMNSLKPVDTAVYYCAADVYLVKYDYWGQGTQVTVSS | low polyreactivity
